These results are taken from publication PMC11472156, “Synergistic regulation of fusion pore opening and dilation by SNARE and synaptotagmin-1” (Journal of Molecular Cell Biology, 2024).

This data set deals with the molecule itself. The experiment in a line: single-molecule fluorescence photobleaching step counting; 40 pM Cy5-labeled C2AB incubated 30 min at room temperature on a DiI-labeled supported lipid bilayer (15% DOPS, with or without 1% PIP2), no Ca2+; unbound protein removed; photobleaching steps per fluorescent spot fitted to a Poisson distribution and corrected for unlabeled fragments; printed numbers are with 1% PIP2.

A word on the stoichiometry N: it is the number of molecules, sites or subunits per partner or assembly.

Residue numbers refer to the chain shown, from its start. Names and notes keep the numbering of the source.

B1: Syt1 C2B domain-containing C2AB fragment, C2AB (A418C), Cy5-labeled (domain or fragment)
chain: KLGKLQYSLDYDFQNNQLLVGIIQAAELPALDMGGTSDPYVKVFLLPDKKKKFETKVHRKTLNPVFNEQFTFKVPYSELGGKTLVMAVYDFDRFSKHDIIGEFKVPMNTVDFGHVTEEWRDLQSAEKEEQEKLGDICFSLRYVPTAGKLTVVILEAKNLKKMDVGGLSDPYVKIHLMQNGKRLKKKKTTIKKNTLNPYYNESFSFEVPFEQIQKVQVVVTVLDYDKIGKNDAIGKVFVGYNSTGAELRHWSDMLANPRRPIAQWHTLQVEEEVDAMLCVKK
modifications: Sulfo-Cy5 maleimide label (labeling efficiency 34.5%-42%)
Consider B1, for which the “stoichiometry N” value was 6.85 molecules.

B2: C2AB_F349A (A418C), Cy5-labeled (domain or fragment)
chain: B1 chain with F209A
modifications: Sulfo-Cy5 maleimide label (labeling efficiency 34.5%-42%)
Regarding B2, the “stoichiometry N” value was 3.03 molecules.
